Measured values: patent US20200405873A1, “PYRROLOBENZODIAZEPINE-ANTIBODY CONJUGATES” (MEDIMMUNE LIMITED, priority 2015, published 2020)

Biological target: T1, human CD25 (Homo sapiens, UniProt P01589)
T1 sequence (P01589 22-272): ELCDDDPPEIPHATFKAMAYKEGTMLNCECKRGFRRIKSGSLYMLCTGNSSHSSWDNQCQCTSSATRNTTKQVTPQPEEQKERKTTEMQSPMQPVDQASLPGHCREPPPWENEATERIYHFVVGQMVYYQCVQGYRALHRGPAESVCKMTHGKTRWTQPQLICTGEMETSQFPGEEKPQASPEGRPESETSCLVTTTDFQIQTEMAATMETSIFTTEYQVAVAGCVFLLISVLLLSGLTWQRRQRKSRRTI
Assay: Binding of ADCT-301 to human CD25
Details: stated in words only

Substance: ADCT-301: ADC of human anti-CD25 monoclonal antibody HuMax-TAC conjugated through a cleavable linker to PBD dimer cytotoxin SG3199
- affinity to human CD25: picomolar
